Reference: PMC8825253, “pHBMT1, a BAHD-family monolignol acyltransferase, mediates lignin acylation in poplar” (Plant Physiology, 2021)

Tests used:
Assay in all cases: LC-MS product quantification, Lineweaver-Burk
Assay type in all cases: biochemical, Populus trichocarpa
[1] = test system: COc1cc(/C=C/CO)cc(OC)c1O; settings: saturating p-hydroxybenzoyl-CoA, 50 mM sodium phosphate pH 6, 1 mM DTT, wheatgerm cell-free enzyme
From the text: (§1) LC-MS product quantification, Lineweaver-Burk on pHBMT1 (Potri.001G448000)

[2] = test system: COc1cc(/C=C/CO)ccc1O; settings: saturating p-hydroxybenzoyl-CoA, 50 mM sodium phosphate pH 6, 1 mM DTT, wheatgerm cell-free enzyme
From the text: as §1

[3] = test system: CC(C)(COP(=O)(O)OP(=O)(O)OC[C@H]1O[C@@H](n2cnc3c(N)ncnc32)[C@H](O)[C@@H]1OP(=O)(O)O)[C@@H](O)C(=O)NCCC(=O)NCCSC(=O)c1ccc(O)cc1; settings: saturating sinapyl alcohol, 50 mM sodium phosphate pH 6, 1 mM DTT, wheatgerm cell-free enzyme
From the text: as §1

**Q.** How did the Km [1] turn out when “pHBMT1 (Potri.001G448000) (Populus trichocarpa)” was run?
**A.** 300 ± 72 µM

**Q.** And the kcat [1]?
**A.** 0.13 ± 0.01 s⁻¹

**Q.** And the kcat/Km [1]?
**A.** 490 M⁻¹ s⁻¹

**Q.** And the Km [2]?
**A.** 954 ± 411 µM

**Q.** And the kcat [2]?
**A.** 0.1 ± 0.02 s⁻¹

**Q.** And the Km [3]?
**A.** 448 ± 21 µM

**Q.** And the kcat [3]?
**A.** 0.18 ± 0.03 s⁻¹

**Q.** What about the kcat/Km [3] of the same substance?
**A.** 400 M⁻¹ s⁻¹
